Source: patent publication US8168160B2, “Anti-inflammatory fusion protein” (Eberhard-Karls-Universität Tübingen, priority 2006, dated 2012)

Experiments:
MMP-9 = MMP-9 expression in the supernatant of foam cells; format: cell-based, human
Experimental: Moreover the method of ROS (“Reactive Oxygen Species”) measurement was used. Typically in the course of an inflammation process monocytes infiltrate the vascular wall, there differentiate into macrophages and produce cytokines, proteases such as the matrix metalloproteinase (MMP) and complement factors, but also free oxidized radicals, i.e. ROS. For the foam cells resulting from the co-incubation of CD34^+ stem cells with thrombocytes in vitro it was detected that they release ROS and also produce matrix metalloproteinase 9 (MMP-9).
The bands correspond to the expression level of MMP-9. In the corresponding lanes the following samples were loaded: 1. control CD34, 2. control CD34, 3. control protein 100 µg/ml, 4. control protein 400 μg/ml, 5. CD68-Fc homodimer 100 µg/ml, 6. CD68-Fc homodimer 200 µg/ml, 7. CD68-Fc homodimer 400 µg/ml, 8. Fluvastatin 1 μM.

[1] = tested on: atherosclerotic vessels of Apo E mice; experiment: In vivo application of J124-labeled CD68-Fc, ex vivo autoradiography of vessels; details: A. carotis; Apo E mice in relation to wild type (FIG. 6)
Experimental: Furthermore an in vivo application of J124-labeled CD68-Fc in atherosclerotic Apo E mice and in wild type mice was performed. J124-labeled CD68-Fc was administered into 24 weeks old atherosclerotic mice or in control wild type mice without any significant atherosclerosis. The organs were then removed and the A. carotis on both sides and the aortic arch were analyzed by autoradiography ex vivo.
A staining with oil-red and a corresponding autoradiography is shown in partial figure (B).

[2] = tested on: foam cell formation from CD34+ stem cells co-cultivated with thrombocytes; experiment: Foam cell formation by co-cultivation of CD34+ stem cells with thrombocytes, counted by phase contrast microscopy; format: cell-based, human
Experimental: To isolate human thrombocytes venous blood was withdrawn from healthy test persons and collected into acidic citrate dextrose (ACD) buffer. After the centrifugation at 430 g for 20 minutes the platelet-rich plasma (PRP) was removed, added to Tyrodes HEPES buffer (2.5 mM HEPES, 150 mM NaCl, 1 mM […], 2.5 mM NaHCO3, 0.36 mM NaH2PO4, 5.5 mM glucose, 1 mg/ml BSA, pH 6.5) and centrifuged at 900 g for 10 minutes. After the removal of the supernatant the thrombocyte containing pellet was suspended in Tyrodes HEPES buffer (pH 7.4).
Human CD34^+ cells were isolated from human cord blood. This was obtained after the approval of the local ethics committee from healthy women immediately after the birth of a child. At least 95% of the isolated cells were positive for CD34^+ which was confirmed by means of flow cytometry analysis after each isolation. Human mononuclear cells were also obtained from cord blood by density gradient centrifugation on the Biocoll separation solution (BIOCROM Berlin, Germany) at 600 g for 15 minutes. CD34^+ cells were enriched by immunoaffinity selection (CD34 progenitor cell isolation kit; Milteenyi Biotec, Bergisch Gladbach, Germany) according to the manual of the producer. In the following the cells were incubated on 96 well plates which were covered with 0.2% gelatine. For the cultivation of the cells IMDM with glutamax, supplemented with 5% heat-inactivated fetal calf serum, […] penicillin-streptomycin, 1% MEM vitamins and 1% non-essential amino acids were used, all purchased from Gibco (Invitrogen, Karlsruhe, Germany). CD34^+ progenitor cells (50000 cells) were co-cultivated at 37° C. and 5% CO2 with thrombocytes (2×10^8-ml) in 96 well plates which were pre-covered with 0.2% gelatine. The formation of foam cells was counted in six windows by means of phase contrast microscopy.
Foam cells were produced by co-incubation of CD34^+ stem cells with thrombocytes for 10 days in vitro. […] In the following it was microscopically analyzed whether the foam cell formation was inhibited by the incubation with the CD68-Fc homodimers. […]

[3] = tested on: atherosclerotic plaque tissue; experiment: Immunohistological analysis of thrombus endarterectomy preparations of the Arteria carotis; format: binding; details: human thrombus endarterectomy preparations of Arteria carotis (FIG. 5B)
Experimental: (§1) Atherosclerotic plaques from the carotid of patients, removed within the context of a surgery, were disintegrated, suspended, transferred to culture plates and surface-dried. Then a specific ELISA against the Fc portion of the CD68 or GPVI or pure Fc, respectively, was performed. In a parallel immunohistological analysis of human tissue from thrombus endarterectomy preparations of the Arteria carotis were performed.

[4] = tested on: atherosclerotic plaque tissue from the carotid of patients; experiment: Specific Fc-ELISA on atherosclerotic plaques in vitro; format: binding; details: disintegrated, surface-dried human carotid plaques (FIG. 5A)
Experimental: as §1

[5] = increasing concentrations (summary statement)

binding to atherosclerotic plaque tissue (immunohistology) [3]: significant binding
binding to atherosclerotic plaque tissue (Fc-ELISA) [4]: significant binding
B1: CD68-Fc homodimer: Fusion of extracellular domain of human CD68 with mutated human IgG1 Fc via three amino acid connecting element (SEQ ID No. 6), secreted as disulfide-linked homodimer (protein)
chain: NDCPHKKSATLLPSFTVTPTVTESTGTTSHRTTKSHKTTTHRTTTTGTTSHGPTTATHNPTTTSHGNVTVHPTSNSTATSQGPSTATHSPATTSHGNATVHPTSNSTATSPGFTSSAHPEPPPPSPSPSPTSKETIGDYTWTNGSQPCVHLQAQIQIRVMYTTQGGGEAWGISVLNPNKTKVQGSCEGAHPHLLLSFPYGHLSFGFMQDLQQKVVYLSYMAVEYNVSFPHAAQWTFSAQNASLRDLQAPLGQSFSCSNSSIILSPAVHLDLLSLRLQAAQLPHTGVFGQSFSCPSDRSGGRESKSCDKTHTCPPCPAPEAAAAPSVFLFPPKPKDTLMISRTPEVTCVVVDVSHEDPEVKFNWYVDGVEVHNAKTKPREEQYNSTYRVVSVLTVLHQDWLNGKEYKCKVSNKALPASIEKTISKAKGQPREPQVYTLPPSRDELTKNQVSLTCLVKGFYPSDIAVEWESNGQPENNYKTTPPVLDSDGSFFLYSKLTVDKSRWQQGNVFSCSVMHEALHNHYTQKSLSLSPGK
modifications: homodimer; Recombinant CD68-Fc fusion protein
expression of MMP-9 in the supernatant of foam cells (MMP-9; 100, 200 and 400 μg/ml (lanes 5, 6, 7), in relation with control protein (FIG. 4)): clear inhibition of the formation of MMP-9
secretion of MMP-9 by foam cells (MMP-9; [5]): can be inhibited
accumulation in vessels (autoradiography ex vivo) [1]: No significantly increased accumulation
foam cell formation ([2]; co-incubation of CD34+ stem cells with thrombocytes for 10 days in vitro, microscopic analysis (FIG. 3B)): inhibited the formation of the foam cells
foam cell formation, dependence on dosage ([2]; concentration of 400 μg/ml, pure Fc as control (FIG. 3C)): virtually completely inhibited
formation of foam cells in co-cultivation assays in vitro [2, 5]: significant inhibition of the formation of foam cells
